We go through 4 substances from PMC7072391.

The assay concerns the target tropomyosin receptor kinase A (TrkA) (rat (endogenous in primary septal cholinergic neurons)) (UniProt P35739).
UniProt P35739, sequence (P35739 33-799): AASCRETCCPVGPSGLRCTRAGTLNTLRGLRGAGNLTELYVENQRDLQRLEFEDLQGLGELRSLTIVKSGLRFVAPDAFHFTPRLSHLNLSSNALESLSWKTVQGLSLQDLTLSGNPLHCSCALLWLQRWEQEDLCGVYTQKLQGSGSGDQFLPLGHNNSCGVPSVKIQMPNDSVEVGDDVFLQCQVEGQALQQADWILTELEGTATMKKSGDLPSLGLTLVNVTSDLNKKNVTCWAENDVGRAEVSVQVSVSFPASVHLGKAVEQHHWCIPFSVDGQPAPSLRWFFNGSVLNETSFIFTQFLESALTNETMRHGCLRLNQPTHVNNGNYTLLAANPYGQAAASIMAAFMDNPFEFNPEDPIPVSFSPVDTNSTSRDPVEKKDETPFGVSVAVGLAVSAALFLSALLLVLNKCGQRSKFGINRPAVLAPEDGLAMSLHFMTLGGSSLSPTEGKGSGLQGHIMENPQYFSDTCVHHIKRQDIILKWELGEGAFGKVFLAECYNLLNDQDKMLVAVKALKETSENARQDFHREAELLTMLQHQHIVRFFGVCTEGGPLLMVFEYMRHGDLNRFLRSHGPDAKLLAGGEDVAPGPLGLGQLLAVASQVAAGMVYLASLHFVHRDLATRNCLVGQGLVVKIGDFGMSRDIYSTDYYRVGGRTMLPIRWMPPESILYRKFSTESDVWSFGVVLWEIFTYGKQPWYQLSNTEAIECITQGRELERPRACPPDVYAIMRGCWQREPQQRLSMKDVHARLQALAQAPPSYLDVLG

Consider “Nerve Growth Factor (NGF), murine (from UniProt P01139 122-241) (ligand)”, for which the pTrkA (Y490) level by western blot, cholinergic neurons treated 7′ with 100 ng/mL (3.84 nM) NGF was 161 % of CTR.

As to acetylated monomer Ac-hNGF1–14 peptide, the pTrkA (Y490) level by western blot, cholinergic neurons treated 7′ with 10 μM peptide was 296 % of CTR.

In the case of hNGF1–15 dimer (peptide), the pTrkA (Y490) level by western blot, cholinergic neurons treated 7′ with 10 μM peptide was 155 % of CTR.

Consider “human NGF 1–14 sequence, monomeric hNGF1–14 peptide”, for which the pTrkA (Y490) level by western blot, cholinergic neurons treated 7′ with 10 μM peptide is 153 % of CTR.
